Data on one substance can be found in patent publication US6950754.

The test concerns the target GCN4-p1. Briefly: size exclusion chromatography, self-association. In general terms: In gel filtration, larger molecules generally elute earlier.

GCN4-p1 (peptide; modification not given), sequence (chain, as listed by the source): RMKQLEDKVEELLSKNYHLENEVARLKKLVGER

For the substance “GCN4-p1 (peptide; modification not given)”, the oligomerization state (N) is 2.
